Source: IntAct's records for PubMed 29039417

B1: BBSome-interacting protein 1 (Homo sapiens), A8MTZ0 (parent)
chain: MLKAAAKRPELSGKNTISNNSDMAEVKSMFREVLPKQGPLFVEDIMTMVLCKPKLLPLKSLTLEKLEKMHQAAQNTIRQQEMAEKDQRQITH
partner: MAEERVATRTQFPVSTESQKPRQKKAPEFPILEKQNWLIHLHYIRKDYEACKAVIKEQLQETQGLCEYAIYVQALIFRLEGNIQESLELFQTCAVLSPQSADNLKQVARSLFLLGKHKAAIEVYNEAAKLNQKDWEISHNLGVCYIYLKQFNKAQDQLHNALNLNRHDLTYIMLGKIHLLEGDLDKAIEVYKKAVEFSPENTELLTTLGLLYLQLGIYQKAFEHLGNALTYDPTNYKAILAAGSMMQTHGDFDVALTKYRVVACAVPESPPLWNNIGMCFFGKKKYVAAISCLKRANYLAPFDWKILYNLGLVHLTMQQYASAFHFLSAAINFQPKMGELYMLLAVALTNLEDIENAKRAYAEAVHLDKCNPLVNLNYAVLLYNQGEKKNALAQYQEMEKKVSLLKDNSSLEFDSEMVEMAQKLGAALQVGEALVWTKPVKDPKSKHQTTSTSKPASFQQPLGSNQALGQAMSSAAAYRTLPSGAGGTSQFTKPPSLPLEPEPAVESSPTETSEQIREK

Variants of: B1
Conditions: with bbs4_human BBS4, Q96RK4

Effect of a mutation on the interaction, with no effect:
G13E
M46K
T91A
K65E
K68A
M29K
D86K
Q87E
V26K
T76E
I77E
R88K
I17E
P39A
A6K
L11K
M82K
Q74E
D44E
T91K
K54A
V42K
M82E
R78E
R8A
L61K
Q37A
V42A
C51K
F41K
D22K
K3E
K59A
I90E
N75K
K85A
P35K
E10A
S28A
K14A
I77A
K27E
K54E
D44A
L58E
K52A
K68E
V33K
T62A
R78A
Q71E
Q74A
R78K
V33A
R31A
D86E
I90A
D44K
S21E
V42E
T76K
N19A
K3A
G13A
K7E
I17K
G38E
L56E
M48E
Q80E
S18E
L34E
T16E
A5E
C51A
M29A
G13K
M48K
T47A
T47K
Q37K
P35A
E84K
A73K
P9K
H92E
P53A
H70K
P53E
L63A
T62E
Q37E
L55K
L2A
N15A
E25A
V49A
L63E
K52E
L2E
Q71A
A83K
K85E
I77K
D22E
L56A
L55E
M69E
R88A
L63K
N19E
H92A
F41A
P57K
E64K
Q79E
L58A
A72K
L50E
D86A
V49E
E81A
S21K
P9E
M23A
P39E
M1A
Q79A
L34K
C51E
P39K
M23E
K36A
P57A
T76A
E64A
L50K
S60A
A24E
L56K
Q80K
H92K
L66A
I45E
A6E
L61A
L2K
L55A
P57E
V26A
Q71K
H70E
E25K
M82A
K36E
R8E

Effect of a mutation on the interaction, disrupting interaction strength:
K54Y
L34A
E32K
P35T
E67S
A72D
K27Y
K52Y
M29F
P57R
K54T
L34H
H70T
T47R
L34R
P35R
P35S
T62S
F30S
C51S
Q71R
